Assay results taken from paper doi:10.1101/2023.08.28.555081 (bioRxiv, 2023).
Residue numbers refer to the chain shown, from its start.

B1: Light-Dependent Protochlorophyllide Oxidoreductase, PORB isoform of A. thaliana, wild type (enzyme)
chain: QTAATSSPTVTKSVDGKKTLRKGNVVVTGASSGLGLATAKALAETGKWNVIMACRDFLKAERAAKSVGMPKDSYTVMHLDLASLDSVRQFVDNFRRTETPLDVLVCNAAVYFPTAKEPTYSAEGFELSVATNHLGHFLLARLLLDDLKKSDYPSKRLIIVGSITGNTNTLAGNVPPKANLGDLRGLAGGLNGLNSSAMIDGGDFDGAKAYKDSKVCNMLTMQEFHRRFHEETGVTFASLYPGCIASTGLFREHIPLFRALFPPFQKYITKGYVSETESGKRLAQVVSDPSLTKSGVYWSWNNASASFENQLSEEASDVEKARKVWEISEKLVGLA
B2: Light-Dependent Protochlorophyllide Oxidoreductase (AtPORB) Y177F_H319A double mutant (enzyme, A. thaliana)
chain: B1 chain with Y111F, H253A

Molecular target: the molecule itself
Assay: negative-stain electron microscopy

Row | Protein | binding result
1 | B1 | binds
2 | B2 | binds
